# Measurements: patent publication US20240360226A1 (AstraZeneca / MedImmune, published 2024)
# T1: HER4 (Homo sapiens (Human), UniProt Q15303 26-651)
# T1 construct: also called EGFR HER family protein HER4
# T1 sequence: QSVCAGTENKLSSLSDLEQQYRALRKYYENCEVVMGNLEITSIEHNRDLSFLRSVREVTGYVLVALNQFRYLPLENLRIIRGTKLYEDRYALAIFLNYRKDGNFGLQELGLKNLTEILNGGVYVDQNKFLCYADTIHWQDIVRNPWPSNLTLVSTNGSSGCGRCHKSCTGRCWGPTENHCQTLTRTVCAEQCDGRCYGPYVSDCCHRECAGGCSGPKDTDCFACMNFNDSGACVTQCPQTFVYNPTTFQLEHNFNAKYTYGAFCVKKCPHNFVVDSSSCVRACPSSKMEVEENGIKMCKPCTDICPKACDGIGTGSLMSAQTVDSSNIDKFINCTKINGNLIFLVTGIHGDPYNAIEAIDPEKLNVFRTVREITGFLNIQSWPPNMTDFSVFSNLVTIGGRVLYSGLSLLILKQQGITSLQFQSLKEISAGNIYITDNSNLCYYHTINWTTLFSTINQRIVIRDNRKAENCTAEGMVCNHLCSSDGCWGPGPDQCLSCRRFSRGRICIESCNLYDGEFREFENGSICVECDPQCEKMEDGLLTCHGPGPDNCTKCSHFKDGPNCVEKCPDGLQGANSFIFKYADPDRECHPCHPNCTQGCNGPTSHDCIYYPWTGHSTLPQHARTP
# B1: RAA22/R347-AZ1508 (bispecific antibody, part only; not given: R347 control arm and constant regions, V domains shown, part only)
# VH: QVQLVQSGAEVKKPGSSVKVSCKASGGTFSDNDFSWVRQAPGQGLEWMGAIVAVFRTETYAQKFQDRVKITADISTRTTYMELSSLRSEDTAVYYCARRLMSAISGPGAPLLMWGQGTLVTVSS
# VL: QSALTQPRSVSGSPGQSVTISCTGTSSDVGGYNYVSWYQQHPGKAPKLMIYDVSKRPSGVPDRFSGSKSGNTASLTISGLQAEDEADYYCSSYTSSDTLEIFGGGTKLTVL
# B2: RAA22 IgG (antibody, V domains shown)
# VH: QVQLVQSGAEVKKPGSSVKVSCKASGGTFSDNDFSWVRQAPGQGLEWMGAIVAVFRTETYAQKFQDRVKITADISTRTTYMELSSLRSEDTAVYYCARRLMSAISGPGAPLLMWGQGTLVTVSS
# VL: QSALTQPRSVSGSPGQSVTISCTGTSSDVGGYNYVSWYQQHPGKAPKLMIYDVSKRPSGVPDRFSGSKSGNTASLTISGLQAEDEADYYCSSYTSSDTLEIFGGGTKLTVL
# notes: Bivalent parental IgG; Only the variable domains are tied to the parental IgG; also called anti-EGFR antibody clone RAA22
# B3: QD6 IgG (antibody, V domains shown)
# VH: QVQLVQSGAEVKKPGSSVKVSCKASGGTFSDNDFSWVRQAPGQGLEWMGAIVAVVRTETYAQKFQDRVKITADISTRTTYMELSSLRSEDTAVYYCARRLMSAISGPGAPLLMWGQGTLVTVSS
# VL: QSALTQPRSVSGSPGQSVTISCTGTSSDVGGYNYVSWYQQHPGKAPKLMIYDVSERPSGVPDRFSGSKSGNTASLTISGLQAEDEADYYCFSYTSSDTLEIFGGGTKLTVL
# notes: Only variable domains are tied to the parental IgG; also called QD06; anti-EGFR antibody clone QD6
# B4: QD6/B09-57 DuetMab (bispecific antibody, human IgG1, kappa, lambda)
# heavy 1: QVQLVQSGAEVKKPGSSVKVSCKASGGTFSDNDFSWVRQAPGQGLEWMGAIVAVVRTETYAQKFQDRVKITADISTRTTYMELSSLRSEDTAVYYCARRLMSAISGPGAPLLMWGQGTLVTVSSASTKGPSVFPLAPSSKSTSGGTAALGCLVKDYFPEPVTVSWNSGALTSGVHTFPAVLQSSGLYSLSSVVTVPSSSLGTQTYICNVNHKPSNTKVDKRVEPKSCDKTHTCPPCPAPELLGGPSCVFLFPPKPKDTLMISRTPEVTCVVVDVSHEDPEVKFNWYVDGVEVHNAKTKPREEQYNSTYRVVSVLTVLHQDWLNGKEYKCKVSNKALPAPIEKTISKAKGQPREPQVCTLPPSREEMTKNQVSLSCAVKGFYPSDIAVEWESNGQPENNYKTTPPVLDSDGSFFLVSKLTVDKSRWQQGNVFSCSVMHEALHNHYTQKSLSLSPGK
# light 1: QSALTQPRSVSGSPGQSVTISCTGTSSDVGGYNYVSWYQQHPGKAPKLMIYDVSERPSGVPDRFSGSKSGNTASLTISGLQAEDEADYYCFSYTSSDTLEIFGGGTKLTVLGQPKAAPSVTLFPPSSEELQANKATLVCLISDFYPGAVTVAWKADSSPVKAGVETTTPSKQSNNKYAASSYLSLTPEQWKSHRSYSCQVTHEGSTVEKTVAPTECS
# heavy 2: QVQLVQSGAEVKKPGASVKVSCKASGYTFTDYYIHWVRQATGQGLEWMGWMNPNSGNTGYAQKFQGRVTMTRDTSISTAYMELSSLRSEDTAVYYCARGQGYTHSWGQGTMVTVSSASTKGPSVCPLAPSSKSTSGGTAALGCLVKDYFPEPVTVSWNSGALTSGVHTFPAVLQSSGLYSLSSVVTVPSSSLGTQTYICNVNHKPSNTKVDKRVEPKSVDKTHTCPPCPAPELLGGPSCVFLFPPKPKDTLMISRTPEVTCVVVDVSHEDPEVKFNWYVDGVEVHNAKTKPREEQYNSTYRVVSVLTVLHQDWLNGKEYKCKVSNKALPAPIEKTISKAKGQPREPQVYTLPPCREEMTKNQVSLWCLVKGFYPSDIAVEWESNGQPENNYKTTPPVLDSDGSFFLYSKLTVDKSRWQQGNVFSCSVMHEALHNHYTQKSLSLSPG
# light 2: DIQMTQSPSTLSASVGDRVTITCRASEGIYHWLAWYQQKPGKAPKLLIYKASSLASGVPSRFSGSGSGTEFTLTISSLQPDDFATYYCQQYSNYPPTFGGGTKLEIKRTVAAPSVFIFPPCDEQLKSGTASVVCLLNNFYPREAKVQWKVDNALQSGNSQESVTEQDSKDSTYSLSSTLTLSKADYEKHKVYACEVTHQGLSSPVTKSFNRGEV
# notes: Monovalent bispecific IgG1 DuetMab with cysteine insertion after Ser239; Labelled with AlexaFluor-647 in the microscopy experiments; also called QD06/B09-57; bispecific EGFR/cMET DuetMAb
# What was measured:
# [1] = target: EGFR on human tumour cells (A431, NCI-H1975, HCC827) (human) (UniProt P00533); test: cell-based or functional assay
# HER2 = target: T2, HER2 (Homo sapiens (Human), UniProt P04626 23-652); test: ELISA, antigen coated at 1 ug/mL, anti-human Fab-HRP detection, A450
# T2 construct: also called EGFR HER family protein HER2
# [2] = target: T3, Cynomolgus monkey EGFR (recombinant, soluble monomeric) (cynomolgus monkey, UniProt P55245 25-645 (rhesus entry)); test: SPR (Biacore T200), antibody captured on anti-human IgG, soluble monomeric antigen as analyte, 25 C
# T3 construct: also called cyno EGFR
# Description: (§1) Mouse anti-human IgG was immobilized on a CM4 sensor chip with a final surface density of ˜2000 resonance units (RUs). A reference flow cell surface was also prepared on this sensor chip using identical immobilization protocol. Test and control article antibodies were prepared at 5-20 nM in instrument buffer (HBS-EP buffer; 0.01M HEPES, pH 7.4, 0.15M NaCl, 3 mM EDTA, and 0.005% P-20), along with 3-fold serial dilutions of purified EGFR (0.27-200 nM human, 0.4-900 nM cyno, and 4-1000 nM murine) or cMET proteins (0.27 to 66 nM human and 0.27-22 nM cyno) in instrument buffer. A sequential approach was utilized for kinetic measurements. Antibodies were first injected over the capture surface, at a flow rate of 10 μL/minute. Once the binding of the captured antibody stabilized, a single concentration of the analyte was injected over both capture and reference surfaces, at a flow rate of 75 μL/minute. The resulting binding response curves yielded the association phase data. Following the injection of analyte, the flow was then switched back to instrument buffer for 15 minutes to permit the collection of dissociation phase data, followed by a 1-minute pulse of 10 mM glycine, pH 1.5, to regenerate the antibody-captured surface on the chip. Binding responses against test and control article antibodies were recorded from duplicate injections of each concentration of analyte. In addition, several buffer injections were interspersed throughout the injection series. Select buffer injections were used along with the reference cell responses to correct the raw data sets for injection artifacts and/or nonspecific binding interactions, commonly referred to as “double referencing”. Corrected binding data were globally fit to a 1:1 binding model (Biacore T200 Evaluation software 2.0, GE Healthcare, Pittsburgh, PA).
# (§2) Kinetic measurements to soluble monomeric forms of EGFR and cMET were performed using a BIACore instrument.
# [3] = target: T4, Mouse EGFR (recombinant, soluble monomeric) (mouse, UniProt Q01279 25-647); test: as above
# T4 construct: also called murine EGFR
# Description: as §1, §2
# [4] = target: T5, Human EGFR (recombinant, soluble monomeric) (human, UniProt P00533 25-645); test: as above
# T5 construct: also called EGFR antigen; recombinant human EGFR
# Description: as §1, §2
# HER4 = target: T1, HER4; test: ELISA, antigen coated at 1 ug/mL, anti-human Fab-HRP detection, A450
# HER3 = target: T6, HER3 (Homo sapiens (Human), UniProt P21860 20-643); test: as above
# T6 construct: also called EGFR HER family protein HER3
# [5] = target: T7, Cynomolgus monkey cMET (recombinant, soluble monomeric) (cynomolgus monkey, UniProt A0M8R7 25-932 (Papio anubis entry)); test: as above
# T7 construct: also called cyno c-Met
# Description: (§3) Specificity for EGFR and cMET species paralogs and closely related family members was determined by ELISA. Briefly, antigen solutions were prepared in PBS at 1 μg/mL and 50 microliters was coated onto half area ELISA assay plates. Plates were washed and blocked with 1% BSA in PBS containing 0.005% Tween-20 (PBS-T) for one hour at room temperature. […] Wells were incubated with 50 microliters of the indicated primary antibodies diluted in PBS-T in a 1:3 dilution series, starting at 10 μg/mL and ending at 0.002 ug/mL, except for the HER4 binding mAb control, MAB1131, for which the series started at 1 μg/mL. The wells were washed 4 times in PBS-T, then 50 μl of goat anti-human Fab HRP-labeled secondary antibody, diluted 1:5000 in PBS-T, was added to each well and incubated for one hour at room temperature. […] 50 microliters of TMB stop solution was added to all wells and the absorbance was read at 450 nm on a SpectraMax M5 microplate reader. Data were analyzed in the SoftMax Pro 5 software and plotted using GraphPad Prism 7 graphing software.
# (§4) To determine the species cross reactivity, ELISA assays were carried out as described above.
# Mouse cMET (recombinant) = Mouse cMET (recombinant) (mouse, UniProt P16056 25-931, limits assumed); test: as above
# Description: as §3, §4
# [6] = target: T8, Human cMET (recombinant, soluble monomeric) (human, UniProt P08581 25-932); test: as above
# T8 construct: also called His-tagged cMET antigen
# Description: as §3, §4
# [7] = target: T7, Cynomolgus monkey cMET (recombinant, …); test: SPR (Biacore T200), antibody captured on anti-human IgG, soluble monomeric antigen as analyte, 25 C
# Description: as §1, §2
# [8] = target: T8, Human cMET (recombinant, soluble …); test: as above
# Description: as §1, §2
# Mouse cMET (recombinant), sequence (P16056 25-931 limits assumed): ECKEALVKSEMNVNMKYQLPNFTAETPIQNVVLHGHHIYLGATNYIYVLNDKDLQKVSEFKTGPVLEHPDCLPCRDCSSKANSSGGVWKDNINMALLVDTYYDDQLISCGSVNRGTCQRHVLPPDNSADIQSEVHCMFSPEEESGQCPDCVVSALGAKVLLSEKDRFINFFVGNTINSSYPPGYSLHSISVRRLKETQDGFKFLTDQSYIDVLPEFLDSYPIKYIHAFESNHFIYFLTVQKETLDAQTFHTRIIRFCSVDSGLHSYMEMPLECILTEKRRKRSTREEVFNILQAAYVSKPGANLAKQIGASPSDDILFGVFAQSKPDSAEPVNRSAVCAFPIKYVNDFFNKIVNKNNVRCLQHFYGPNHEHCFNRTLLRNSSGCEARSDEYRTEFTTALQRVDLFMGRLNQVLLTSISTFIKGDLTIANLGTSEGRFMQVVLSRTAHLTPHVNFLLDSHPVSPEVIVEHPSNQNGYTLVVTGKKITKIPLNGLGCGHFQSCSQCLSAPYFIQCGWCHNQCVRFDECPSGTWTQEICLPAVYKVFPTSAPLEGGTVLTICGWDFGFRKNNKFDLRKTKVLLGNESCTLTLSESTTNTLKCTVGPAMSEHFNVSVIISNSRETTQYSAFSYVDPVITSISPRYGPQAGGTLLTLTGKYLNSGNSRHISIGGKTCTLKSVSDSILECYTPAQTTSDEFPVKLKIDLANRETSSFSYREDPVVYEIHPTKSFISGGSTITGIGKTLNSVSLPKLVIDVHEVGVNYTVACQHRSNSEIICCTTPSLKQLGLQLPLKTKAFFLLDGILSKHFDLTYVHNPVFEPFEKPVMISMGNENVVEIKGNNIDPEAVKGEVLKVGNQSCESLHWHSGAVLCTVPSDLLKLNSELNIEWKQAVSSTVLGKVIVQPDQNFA
# T8 sequence (P08581 25-932): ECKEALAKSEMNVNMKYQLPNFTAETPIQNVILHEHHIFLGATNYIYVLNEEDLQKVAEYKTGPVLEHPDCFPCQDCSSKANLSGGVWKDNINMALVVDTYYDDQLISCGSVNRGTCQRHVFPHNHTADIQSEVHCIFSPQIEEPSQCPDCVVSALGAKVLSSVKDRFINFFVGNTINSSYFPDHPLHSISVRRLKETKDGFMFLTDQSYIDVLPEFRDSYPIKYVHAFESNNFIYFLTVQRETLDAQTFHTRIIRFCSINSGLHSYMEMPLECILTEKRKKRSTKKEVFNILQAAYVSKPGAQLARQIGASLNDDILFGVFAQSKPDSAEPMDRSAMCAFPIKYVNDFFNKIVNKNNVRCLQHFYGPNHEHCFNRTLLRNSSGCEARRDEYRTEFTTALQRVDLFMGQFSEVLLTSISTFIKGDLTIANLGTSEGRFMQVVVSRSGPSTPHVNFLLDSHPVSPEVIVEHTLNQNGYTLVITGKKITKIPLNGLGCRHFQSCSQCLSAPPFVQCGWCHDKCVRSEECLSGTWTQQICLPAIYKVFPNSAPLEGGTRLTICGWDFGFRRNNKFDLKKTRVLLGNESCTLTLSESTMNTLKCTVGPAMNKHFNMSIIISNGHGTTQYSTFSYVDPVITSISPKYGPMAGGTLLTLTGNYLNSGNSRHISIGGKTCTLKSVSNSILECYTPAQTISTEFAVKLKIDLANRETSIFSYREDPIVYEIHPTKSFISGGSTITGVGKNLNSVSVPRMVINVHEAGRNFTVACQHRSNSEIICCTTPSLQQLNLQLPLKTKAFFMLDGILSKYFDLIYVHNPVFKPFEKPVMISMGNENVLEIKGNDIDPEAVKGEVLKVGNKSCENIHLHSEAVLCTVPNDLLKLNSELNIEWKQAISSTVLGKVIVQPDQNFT
# T7 sequence (A0M8R7 25-932 S170N/I621T): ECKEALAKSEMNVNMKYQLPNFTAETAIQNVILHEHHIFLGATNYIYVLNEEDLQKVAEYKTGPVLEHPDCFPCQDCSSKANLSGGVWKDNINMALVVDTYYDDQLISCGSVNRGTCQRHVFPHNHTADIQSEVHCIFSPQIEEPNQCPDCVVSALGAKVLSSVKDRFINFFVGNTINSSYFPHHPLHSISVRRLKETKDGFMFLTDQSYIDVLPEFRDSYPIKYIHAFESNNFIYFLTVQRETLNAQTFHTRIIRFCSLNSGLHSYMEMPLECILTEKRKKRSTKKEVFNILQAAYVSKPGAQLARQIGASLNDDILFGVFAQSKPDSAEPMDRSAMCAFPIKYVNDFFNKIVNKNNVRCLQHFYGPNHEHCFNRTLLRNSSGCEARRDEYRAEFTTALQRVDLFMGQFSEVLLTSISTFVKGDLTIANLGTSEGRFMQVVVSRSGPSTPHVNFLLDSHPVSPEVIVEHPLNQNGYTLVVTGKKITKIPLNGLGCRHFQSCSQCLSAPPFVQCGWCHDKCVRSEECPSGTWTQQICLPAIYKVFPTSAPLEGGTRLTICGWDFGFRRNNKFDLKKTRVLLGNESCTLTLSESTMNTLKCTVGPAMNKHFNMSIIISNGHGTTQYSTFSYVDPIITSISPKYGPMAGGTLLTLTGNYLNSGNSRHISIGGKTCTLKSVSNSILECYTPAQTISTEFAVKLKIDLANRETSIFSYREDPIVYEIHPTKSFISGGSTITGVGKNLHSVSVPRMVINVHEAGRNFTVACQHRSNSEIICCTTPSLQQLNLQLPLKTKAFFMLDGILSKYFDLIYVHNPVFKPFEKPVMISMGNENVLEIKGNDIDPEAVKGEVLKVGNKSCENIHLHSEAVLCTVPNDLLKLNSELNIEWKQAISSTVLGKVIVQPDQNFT
Binder,binding result (HER2),Kd [2] [nM],koff [2] [s⁻¹],kon [2] [M⁻¹ s⁻¹],Kd [3] [nM],koff [3] [s⁻¹],kon [3] [M⁻¹ s⁻¹],Kd [4] [nM],koff [4] [s⁻¹],kon [4] [M⁻¹ s⁻¹],binding result (HER4),binding result (HER3),binding result [5],binding result (Mouse cMET (recombinant)),binding result [6],also measured
B1,,,,,,,,,,,,,,,,"IC50, CellTiter-Glo cytotoxicity on NCI H1975 cells (FIG. 11) [1]: 20.5 nM; fold difference in IC50 against the bispecific EGFR-cMET ADC [1]: 65 fold"
B2,no binding (tested: 10 ug/ml),170,0.00601,35400,488,0.019,40300,46.6,0.00206,44100,no binding (tested: 10 ug/ml),no binding (tested: 10 ug/ml),no binding (tested: 10 ug/ml),no binding (tested: 10 ug/ml),no binding (tested: 10 ug/ml),
B3,no binding (tested: 10 ug/ml),2.5,0.000288,114000,4.4,0.000735,167000,2,0.000292,148000,no binding (tested: 10 ug/ml),no binding (tested: 10 ug/ml),no binding (tested: 10 ug/ml),no binding (tested: 10 ug/ml),no binding (tested: 10 ug/ml),
B4,no binding (tested: 10 ug/ml),2.8,0.000585,210000,6.2,0.00078,126000,5.9,0.000374,63500,no binding (tested: 10 ug/ml),no binding (tested: 10 ug/ml),,no binding (tested: 10 ug/ml),,Kd [7]: 2.2 nM; koff [7]: 0.00206 s⁻¹; kon [7]: 958000 M⁻¹ s⁻¹; Kd [8]: 1.6 nM; koff [8]: 0.000696 s⁻¹; kon [8]: 425000 M⁻¹ s⁻¹
